# Results reported in patent US20070293451A1, “Regulation ao ApoB by Hsp110 proteins and related compositions and methods” (University of Pittsburgh, priority 2006, published 2007).
# What was measured:
# ApoB100 = ApoB100 biogenesis and secretion from McArdle cells (pulse-chase) on Hsp110 over-expression; assay type: cell-based, rat
# Experimental: (§1) FIGS. 9A and 9B show the effect of Hsp110 over-expression on ApoB100 secretion from McArdle cells, a standard rat hepatoma cell model of lipoprotein metabolism. ApoB100 (FIG. 9A) and albumin (FIG. 9B) biogenesis and secretion were assessed by published pulse-chase analytical methods.
# (§2) An Hsp110 expression vector was obtained from Dr. John Subjeck (Roswell Park Cancer Center, N.Y.), and either that vector or a vector control was introduced into McArdle cells—a rat hepatoma cell line that also expresses full-length ApoB (that is, ApoB100). […] As a control, there was no effect on albumin secretion from these cells, regardless of whether Hsp110 was over-expressed (FIG. 9B). Furthermore, the over-expression of Hsp110 in the McArdle cells in the presence of a microsomal triglyceride transfer protein (MTP) inhibitor (BMS-200150; Jamil, H., D. A. Gordon, D. C. Eustice, C. M. Brooks, J. K. Dickson, Jr., Y. Chen, B. Ricci, C.-H. Chu, T. W. Harrity, C. P. Ciosek, Jr., S. A. Biller, R. E. Gregg, and J. R. Wetterau. 1996. An inhibitor of the microsomal triglyceride transfer protein inhibits apoB secretion from HepG2 cells. Proc Natl Acad Sci USA. 93, 11991-95) increased the percent of apoB recovered in the lysate and medium fractions from 14% to 28% (data not shown).
# albumin = assay: Albumin secretion from McArdle cells (control); assay type: cell-based, rat; conditions: Hsp110 over-expressed or not
# Experimental: as §1, §2
# ApoB48 = assay: In vitro ApoB48 degradation assay in yeast cytosol with added purified protein; assay type: biochemical; conditions: purified protein added to wild type (SSE1) or delete (sse1) cytosols
# Experimental: In vitro Analysis of ApoB Degradation: ^35S methionine labeled ApoB48 was synthesized in the presence of canine pancreatic microsomes (DPM; Promega, Madison, Wis.) using the SP6-TNT Kit (Promega) and plasmid pSPB48 (see above) as previously described (Gusarova, et al., 2001). The reaction mixture was then layered onto 1 mL SH buffer (0.25M sucrose, 5 mM Hepes, pH 7.4) and centrifuged at 100,000g for 30 min at 4° C. The microsomal pellets were resuspended in 12 μl of 2×PH buffer (40 mM HEPES, pH 7.4, 220 mM KCl, 10 mM MgCl2) and pooled. Cytosol, prepared as previously described (McCracken and Brodsky, 1996), was diluted to a specified concentration and pre-incubated with 0.25 mM MG132 (Peptides International) or an equivalent volume of DMSO for 15 min on ice. Following the pre-incubation, cytosol and ApoB48 were mixed 1:1 with these reagents at final concentrations of, 2 mM ATP, 10 mM creatine phosphate, and 100μg/mL creatine phosphokinase. Aliquots of the reaction were incubated at 37° C. for 5, 15 and 30 min or the indicated times and the reaction was quenched by adding an equal volume of 2×Urea Buffer (125 mM Tris, pH 6.8, 4% SDS, 6M Urea, 1 mM EDTA, 10 mM DTT, 250 mM β-mercaptoethanol, 20% Glycerol) and the mixture was heated at 96° C. for 4 min. […] Phosphorimager data was analyzed using Image Gauge software (Fuji Film Science Lab). […]
Molecule,"percent of apoB recovered in the lysate and medium fractions (ApoB100; Hsp110 over-expression in the presence of MTP inhibitor BMS-200150, data not shown) [%]",amount of ApoB100 in cell extracts (ApoB100; especially notable at 30 min time point),"increase in the amount of ApoB 100 secreted (ApoB100; medium, Hsp110 vector vs vector control) [fold]",effect on albumin secretion (albumin),effect on ApoB48 in vitro (ApoB48)
"Hsp110: human Hsp110 over-expressed from an expression vector in McArdle cells (protein, UniProt Q92598 2-858, looked up) Heat shock protein 105 kDa: SVVGLDVGSQSCYIAVARAGGIETIANEFSDRCTPSVISFGSKNRTIGVAAKNQQITHANNTVSNFKRFHGRAFNDPFIQKEKENLSYDLVPLKNGGVGIKVMYMGEEHLFSVEQITAMLLTKLKETAENSLKKPVTDCVISVPSFFTDAERRSVLDAAQIVGLNCLRLMNDMTAVALNYGIYKQDLPSLDEKPRIVVFVDMGHSAFQVSACAFNKGKLKVLGTAFDPFLGGKNFDEKLVEHFCAEFKTKYKLDAKSKIRALLRLYQECEKLKKLMSSNSTDLPLNIECFMNDKDVSGKMNRSQFEELCAELLQKIEVPLYSLLEQTHLKVEDVSAVEIVGGATRIPAVKERIAKFFGKDISTTLNADEAVARGCALQCAILSPAFKVREFSVTDAVPFPISLIWNHDSEDTEGVHEVFSRNHAAPFSKVLTFLRRGPFELEAFYSDPQGVPYPEAKIGRFVVQNVSAQKDGEKSRVKVKVRVNTHGIFTISTASMVEKVPTEENEMSSEADMECLNQRPPENPDTDKNVQQDNSEAGTQPQVQTDAQQTSQSPPSPELTSEENKIPDADKANEKKVDQPPEAKKPKIKVVNVELPIEANLVWQLGKDLLNMYIETEGKMIMQDKLEKERNDAKNAVEEYVYEFRDKLCGPYEKFICEQDHQNFLRLLTETEDWLYEEGEDQAKQAYVDKLEELMKIGTPVKVRFQEAEERPKMFEELGQRLQHYAKIAADFRNKDEKYNHIDESEMKKVEKSVNEVMEWMNNVMNAQAKKSLDQDPVVRAQEIKTKIKELNNTCEPVVTQPKPKIESPKLERTPNGPNIDKKEEDLEDKNNFGAEPPHQNGECYPNEKNSVNMDLD",28,concomitant increase,~2,no effect,
"Sse1p: active, recombinant purified yeast Hsp110 homolog Sse1p (GenBank NP_015219) (protein) STPFGLDLGNNNSVLAVARNRGIDIVVNEVSNRSTPSVVGFGPKNRYLGETGKNKQTSNIKNTVANLKRIIGLDYHHPDFEQESKHFTSKLVELDDKKTGAEVRFAGEKHVFSATQLAAMFIDKVKDTVKQDTKANITDVCIAVPPWYTEEQRYNIADAARIAGLNPVRIVNDVTAAGVSYGIFKTDLPEGEEKPRIVAFVDIGHSSYTCSIMAFKKGQLKVLGTACDKHFGGRDFDLAITEHFADEFKTKYKIDIRENPKAYNRILTAAEKLKKVLSANTNAPFSVESVMNDVDVSSQLSREELEELVKPLLERVTEPVTKALAQAKLSAEEVDFVEIIGGTTRIPTLKQSISEAFGKPLSTTLNQDEAIAKGAAFICAIHSPTLRVRPFKFEDIHPYSVSYSWDKQVEDEDHMEVFPAGSSFPSTKLITLNRTGDFSMAASYTDITQLPPNTPEQIANWEITGVQLPEGQDSVPVKLKLRCDPSGLHTIEEAYTIEDIEVEEPIPLPEDAPEDAEQEFKKVTKTVKKDDLTIVAHTFGLDAKKLNELIEKENEMLAQDKLVAETEDRKNTLEEYIYTLRGKLEEEYAPFASDAEKTKLQGMLNKAEEWLYDEGFDSIKAKYIAKYEELASLGNIIRGRYLAKEEEKKQAIRSKQEASQMAAMAEKLAAQRKAEAEKKEEKKDTEGDVDMD",,,,,stabilizes ApoB48
